One experiment deals with Man9-V3 glycopeptide. Description: BLI.
Experiment [1] concerns the target Man9-V3 glycopeptide (HIV-1 (clade B JRFL mini-V3)). The experiment is described as follows: BLI, biotinylated peptide on streptavidin sensor, bivalent avidity model.

From US20200113997A1 come the findings set out here.

B1: DH270.IA3 (protein)
chain 1: QVQLVQSGAEVKKPGASVKVSCKASGYTFTDYYIHWVRQAPGQGLEWMAWINPTTGRTNYARKFQGRVTMTRDTSISTAYMELRRLRSDDTAVYYCARGGWIGLYVDYSGYPNFDSWGQGTLVTVSS
chain 2: QSALTQPASVSGSPGQSITISCTGTSYDVGSYNLVSWYQQHPGKAPKLMIYEVSKWPSGVSNRFSGSKSGNTASLTISGLQAEDEADYYCCSYAGSSTVIFGGGTKLTVL
In turn, B1 returned a Kd with Man9-V3 glycopeptide of over 10 µM.

B2: DH270.IA2 (protein)
chain 1: QVQLVQSGAEMKKPGASVKVSCKASGYTFTDYYIHWVRQAPGQGLEWMGWINPNTGRTNYAQKFQGRVTMTRDTSISTAYMELSRLTSDDTAVYYCATGGWIGLYYDSSGYPNFDYWGQGTLVTVSS
chain 2: QSALTQPASVSGSPGQSITISCTGTSYDVGSYNLVSWYQQHPGKAPKYMIYEVNKRPSGVSNRFSGSKSGNTASLTISGLQAEDEADYYCCSYAGSSTVIFGGGTKLTVL
B2 returned a Kd with Man9-V3 glycopeptide of over 10 µM.

B3: DH270.IA1 (protein)
chain 1: QVQLVQSGAEVKKPGASVKVSCKASGYTFTDYYIHWVRQAPGQGLEWMGWINPNTGRTNYAQKFQGRVIMTRDTSISTAYMELSRLRSDDTAVYYCARGGWIGLYYDSSGYPNFDYWGQGTLVTVSS
chain 2: QSALTQPASVSGSPGQSITISCTGTSYDVGSYNLVSWYQQHPGKAPKLMIYEVSKRPSGVSNRFSGSKSGNTASLTISGLQAEDEADYYCCSYAGSSTVIFGGGTKLTVL
B3 came in with a Kd in the experiment with Man9-V3 glycopeptide of 3.29 µM.

B4: DH270.6 (antibody, V domains shown)
VH: QVQLVQSGAQMKNPGASVKVSCAPSGYTFTDFYIHWLRQAPGQGLQWMGWMNPQTGRTNTARNFQGRVIMTRDTSIGTAYMELRSLTSDDTAIYYCTTGGWISLYYDSSYYPNFDHWGQGTLLTVSS
VL: TSLLTQPASVSGSPGQSITISCTGTKYDVGSHDLVSWYQQYPGKVPKYMIYEVNKRPSGVSNRFSGSKSGNTASLTISGLRAEDEADYYCCSFGGSATVVCGGGTKVTVL
For the molecule B4, in experiment [1], the Kd is 0.188 µM.
